First the molecules themselves.
T1: human SEMA4A expressed on cells (UniProt ID Q9H3S1, isoform 1) (human, UniProt Q9H3S1 33-761)
T1 sequence: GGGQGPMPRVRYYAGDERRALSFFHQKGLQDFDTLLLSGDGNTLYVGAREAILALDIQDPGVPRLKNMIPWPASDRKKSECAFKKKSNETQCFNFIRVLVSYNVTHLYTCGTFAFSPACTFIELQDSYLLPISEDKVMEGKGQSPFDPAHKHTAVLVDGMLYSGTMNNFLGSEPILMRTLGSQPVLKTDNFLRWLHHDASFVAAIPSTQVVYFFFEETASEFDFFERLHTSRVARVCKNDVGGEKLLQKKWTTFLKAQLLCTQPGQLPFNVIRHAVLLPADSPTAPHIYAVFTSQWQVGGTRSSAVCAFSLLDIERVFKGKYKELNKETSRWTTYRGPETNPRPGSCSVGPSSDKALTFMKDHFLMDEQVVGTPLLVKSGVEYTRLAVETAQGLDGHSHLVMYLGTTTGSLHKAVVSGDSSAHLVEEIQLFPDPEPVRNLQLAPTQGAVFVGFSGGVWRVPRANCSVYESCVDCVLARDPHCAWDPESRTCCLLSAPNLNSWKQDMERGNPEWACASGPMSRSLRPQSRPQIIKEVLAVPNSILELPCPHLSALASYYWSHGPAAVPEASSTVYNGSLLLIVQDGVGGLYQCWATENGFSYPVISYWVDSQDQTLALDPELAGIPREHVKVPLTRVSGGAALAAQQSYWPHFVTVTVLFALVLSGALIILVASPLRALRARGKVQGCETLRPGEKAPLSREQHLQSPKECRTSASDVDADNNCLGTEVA

T2: mouse SEMA4A expressed on expi293 cells (UniProt ID Q62178) (mouse, UniProt Q62178 33-760)
T2 construct: Transient transfection in expi293 cells
T2 sequence: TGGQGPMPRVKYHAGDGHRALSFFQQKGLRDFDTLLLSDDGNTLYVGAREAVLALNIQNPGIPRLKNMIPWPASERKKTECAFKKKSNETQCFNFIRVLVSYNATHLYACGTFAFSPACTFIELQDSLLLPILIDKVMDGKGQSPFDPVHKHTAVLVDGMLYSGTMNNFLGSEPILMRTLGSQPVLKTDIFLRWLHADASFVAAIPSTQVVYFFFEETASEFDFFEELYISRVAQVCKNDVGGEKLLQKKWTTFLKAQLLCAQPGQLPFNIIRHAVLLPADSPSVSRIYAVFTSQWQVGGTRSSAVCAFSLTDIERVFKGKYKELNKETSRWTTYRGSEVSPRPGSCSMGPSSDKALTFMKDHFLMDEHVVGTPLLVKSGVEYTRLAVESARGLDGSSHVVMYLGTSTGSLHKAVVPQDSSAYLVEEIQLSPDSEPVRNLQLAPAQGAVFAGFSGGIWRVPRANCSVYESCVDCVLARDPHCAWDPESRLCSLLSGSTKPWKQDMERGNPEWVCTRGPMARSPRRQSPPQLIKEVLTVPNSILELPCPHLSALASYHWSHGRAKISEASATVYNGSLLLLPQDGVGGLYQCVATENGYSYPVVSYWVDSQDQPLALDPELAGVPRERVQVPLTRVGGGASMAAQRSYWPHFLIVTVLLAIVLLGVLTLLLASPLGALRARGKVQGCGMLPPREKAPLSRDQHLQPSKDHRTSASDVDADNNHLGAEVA

B1: 5Hg4-5Lg5 human Alya IgG1 (antibody, V domains shown)
VH: QVQLVQSGSELKKPGASVKVSCKASGYTFTDYWMHWVRQAPGQGLEWMGAIDTSDSYTSYNQKFKGRFVFSLDTSVSTAYLQICSLKAEDTAVYYCARDYGNFYYYAMDYWGQGTLVTVSS
VL: QSVVTQPPSVSGAPGQRVTISCRSSTGAVTTSNYANWYQQLPGTAPKLLIYGTNNRAPGVPDRFSGSKSGASASLAITGLQAEDEADYYCALWYSNHWVFGGGTKLTVL
notes: Humanised 5E3; human IgG1 Alya constant (239iCys, S442C, EU), lambda light chain; purified, unconjugated
B2: 5Hg2-5Lg1 human Alya IgG1 (antibody, V domains shown)
VH: QVQLVQSGAEVKKPGASVKVSCKASGYTFTDYWMHWVRQAPGQRLEWMGAIDTSDSYTSYNQKFKGRVTITRDTSASTAYMELSSLRSEDTAVYYCARDYGNFYYYAMDYWGQGTLVTVSS
VL: QAVVTQEPSLTVSPGGTVTLTCRSSTGAVTTSNYANWFQQKPGQAPRTLIYGTNNRAPWTPARFSGSLLGGKAALTLSGAQPEDEAEYYCALWYSNHWVFGGGTKLTVL
notes: as for B1
B3: 5Hg2-5Lg3 human Alya IgG1 (antibody, V domains shown)
VH: B2 VH
VL: QTVVTQEPSFSVSPGGTVTLTCRSSTGAVTTSNYANWYQQTPGQAPRTLIYGTNNRAPGVPDRFSGSILGNKAALTITGAQADDESDYYCALWYSNHWVFGGGTKLTVL
notes: as for B1
B4: 5Hg1-5Lg1 human Alya IgG1 (antibody, V domains shown)
VH: B2 VH with R44G, I70M, A76T, A79V
VL: B2 VL
notes: as for B1
B5: 5Hg1-5Lg2 human Alya IgG1 (antibody, V domains shown)
VH: B2 VH with R44G, I70M, A76T, A79V
VL: B2 VL with S78L
notes: as for B1
B6: 5Hg2-5Lg2 human Alya IgG1 (antibody, V domains shown)
VH: B2 VH
VL: B2 VL with S78L
notes: as for B1
B7: mouse 5E3 expressed as human IgG1 Alya (antibody, V domains shown)
VH: QVQLQQPGAELVMPGASVKMSCKASGYTFTDYWMHWVKQRPGQGLEWIGAIDTSDSYTSYNQKFKGKATLTVDESSSTAYMQLSSLTSEDSAVYYCARDYGNFYYYAMDYWGQGTSVTVSS
VL: QAVVTQESALTTSPGETVTLTCRSSTGAVTTSNYANWVQEKPDHLFTGLIGGTNNRAPGVPARFSGSLIGDKAALTITGAQTEDEAIYFCALWYSNHWVFGGGTKLTVL
notes: Mouse variable domains on human IgG1 Alya constant (pEU1.22; 239iCys and S442C, EU numbering); purified, unconjugated; also called 5E3 IgG1 Alya
B8: C0120905 human Alya IgG1 (antibody, V domains shown)
VH: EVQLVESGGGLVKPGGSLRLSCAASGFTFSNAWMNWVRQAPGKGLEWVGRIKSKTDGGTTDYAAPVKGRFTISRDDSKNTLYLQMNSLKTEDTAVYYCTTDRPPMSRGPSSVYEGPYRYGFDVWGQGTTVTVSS
VL: NFMLTQPHSVSESPGKTVTISCTGSGGNIVDNFVQWHQQRPGSAPRTVIYEDDQRPSGVPDRFSASVDSSSNSGTLSISGLKTEDEADYYCQSYDGANRWVFGGGTKLTVL
notes: Fully human, phage display derived; human IgG1 Alya constant (239iCys, S442C, EU); unconjugated
B9: C0120917 human Alya IgG1 (antibody, V domains shown)
VH: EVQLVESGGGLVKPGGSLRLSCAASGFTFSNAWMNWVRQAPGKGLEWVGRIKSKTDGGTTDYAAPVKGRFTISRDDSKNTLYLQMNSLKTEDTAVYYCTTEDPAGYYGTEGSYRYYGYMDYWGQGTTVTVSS
VL: NFMLTQPHSVSESPGKTVTISCTASGDTLDNKYVNWYQVRPGSAPATLIFHYEERDSGVPDRFSGSFDASSNSASLTISGLQTADEADYFCQSYDSKRDNLVVFGGGTKVTVL
notes: as for B8
B10: C0120906 human Alya IgG1 (antibody, V domains shown)
VH: EVQLVQSGPEVKKPGASVKISCKASGYKLNDPGVHGVSWVRQAPGQGLEWMGWISTLNGDTRYAQKFQGRVTMATDSSTSTIYMDLRSLKSDDTALYYCARDDYTAIFDFWGRGTLVTVSS
VL: QSVLTQPPSVSVAPGQTASITCGGSNIGSQSVHWYQQKPGQAPVLVVYDDSDRPSGIPERFSGSKSGNTASLILSRVEAGDEADYYCQVWDSSTDHHVFGTGTKVTVL
notes: as for B8
B11: C0120914 human Alya IgG1 (antibody, V domains shown)
VH: QVQLQESGPGLVKPSETLSLTCTVSGGSVSSGRYDWSWIRQPPGKGLEWIGHIYYTGITDYNPSLRSRVTISADKPKNQFSLKLNSVTAADTAVYYCARGPFFDPWGQGTMVTVSS
VL: QSVLTQPPSVSVAPGQTASLTCGANNIGSKSVQWYQQKPGQAPVLVVYDGSDRPSGIPDRFSGSSSENTATLTISRVEAGDEADYYCQLWDSVTDRPVFGGGTKVTVL
notes: as for B8
B12: C0120918 human Alya IgG1 (antibody, V domains shown)
VH: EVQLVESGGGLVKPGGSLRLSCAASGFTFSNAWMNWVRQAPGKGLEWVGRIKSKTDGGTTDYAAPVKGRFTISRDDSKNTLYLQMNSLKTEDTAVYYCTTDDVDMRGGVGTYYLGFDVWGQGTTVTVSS
VL: SYELTQPPSVSVSPGQTARITCSGDALPKQYAYWYQQKPGQAPVLVIYKDSERPSGIPERFSGSSSGTTVTLTISGVQAEDEADYYCQSADSSGTWVFGGGTKVTVL
notes: as for B8
B13: C0120903 human Alya IgG1 (antibody, V domains shown)
VH: EVQLVQSGAEVKKPGSSMKVSCKASGGTFNSYTINWVRQAPGQGLEWVGGFIPIFGTADYAQKFHGRVAITADESMSTAYMELSSLRSEDTAVYYCARAPLGSEPFDYWGQGTMVTVSS
VL: SYVLTQPPSVSVAPGQTARITCGGNNIGSKSVHWYQQKPGQAPVLVVYDDSDRPSGIPERFSGSNSGNTATLTISRVEAGDEADYYCQVWDSSSDHLVFGGGTKLTVL
notes: as for B8

Results on 13 molecules are retold here after patent US20250152729A1 (CANCER RESEARCH TECHNOLOGY, published 2025).

Substitutions are numbered along the chain they refer to. Names and notes keep the numbering of the source.

Usually IC50 stands for the midpoint of a concentration-inhibition curve.

One experiment has as its target T1, human SEMA4A expressed on cells …. Nature of the experiment: cell-based or functional assay.
Consider B1, for which the “IC50 (pM), Fab-ZAP cell kill, NCI-H929” value stood at 119 pM and the “Max % Cell Kill, Fab-ZAP, NCI-H929” value is 50%.

Regarding B2, the “IC50 (pM), Fab-ZAP cell kill, NCI-H929” value is 38 pM and the “Max % Cell Kill, Fab-ZAP, NCI-H929” value was 78%.

Consider B3, for which the “IC50 (pM), Fab-ZAP cell kill, NCI-H929” value was 113 pM and the “Max % Cell Kill, Fab-ZAP, NCI-H929” value stood at 58%.

As to B4, the “IC50 (pM), Fab-ZAP cell kill, NCI-H929” value came out at 66 pM and the “Max % Cell Kill, Fab-ZAP, NCI-H929” value came to 76%.

Turning to B5, the “IC50 (pM), Fab-ZAP cell kill, NCI-H929” value is 74 pM and the “Max % Cell Kill, Fab-ZAP, NCI-H929” value worked out at 74%.

B6: the “IC50 (pM), Fab-ZAP cell kill, NCI-H929” value is 52 pM and the “Max % Cell Kill, Fab-ZAP, NCI-H929” value turned out to be 83%.

For B7, the “IC50 (pM), Fab-ZAP cell kill, NCI-H929” value is 38 pM and the “Max % Cell Kill, Fab-ZAP, NCI-H929” value came to 89%.

The target is the same in the next experiment. The experiment in a line: Mirrorball epitope competition on MM.1S cells; competitor: fixed 5E3 mouse IgG1. An excerpt:
The 5E3 epitope competition assay assessed the ability of the un-purified IgGs expressed in a human IgG1 backbone to compete for binding to the mouse 5E3 epitope on human SEMA4A endogenously expressed by MM.1S cells, a human multiple myeloma cell line. The assay utilised a secondary-Alexa Fluor 647 conjugate, 5E3 expressed in a mouse IgG1 (A) backbone (BioLegend®, San Diego, CA, 148402) and a Mirrorball fluorescence cytometer (SPT Labtech, UK). Binding of 5E3 mouse IgG1 to MM.1S cells was measured via an anti-mouse secondary labelled with Alexa Fluor 647 (Invitrogen, A21235) in the presence of a single concentration of each un-purified human IgG1. […] 10 μl undiluted un-purified IgG, contained in Expi293 expression medium (Gibco, UK, A1435101), were added to the assay plate (Greiner Bio-one, UK, 781906), followed by 10 ul of 1.2 nM 5E3 mouse IgG1 and 20 μl MM.1S cell suspension containing 1,500 cells that was spiked with 4 nM anti-mouse Alexa Fluor 647. The assay plate was incubated for 4 hours at room temperature, in the dark prior to reading on a Mirrorball fluorescence cytometer (SPT Labtech, UK) using a 640 nm laser for excitation and measuring emission in the FL-4 channel (650-690 nm). Data was analysed as Count x median mean intensity (x FLU). All dilutions were performed in Hanks' balanced salt solution (Sigma, UK; cat: H8264) containing 0.1% (w/V) BSA (Sigma, UK; cat: A9576). Maximum binding signal was determined by analysing the binding of 5E3 mouse IgG1 to MM.1S cells in the absence of competitor un-purified human IgG1. Background binding signal was determined by analysing the fluorescence generated in the absence of 5E3 mouse IgG1. Data were analysed and graphed using GraphPad Prism software (GraphPad Software, Inc, La Jolla, CA).
Hits from the primary screening were re-formatted into the human Alya IgG1 vector and re-expressed and purified as described in section 4.1. 5E3 epitope competition assay methods are described in section 3.2 and were used to test purified human Alya IgG1s. The purified human Alya IgG1s were diluted to a 4× stock and then serially diluted using 4-fold dilutions to generate a 10 point concentration response curve.
In the case of B1, the IC50 turned out to be 20.4 nM.

Consider B2, for which the IC50 turned out to be 1.1 nM.

Take B3: the IC50 came out at 11.3 nM.

In the case of B4, the IC50 turned out to be 2 nM.

In the case of B5, the IC50 turned out to be 2.1 nM. The IC50 values of the last two molecules are within 1.5-fold of each other.

B6 returned an IC50 of 1.1 nM.

B7: the IC50 was found to be 0.3 nM.

Another experiment deals with T2, mouse SEMA4A expressed on expi293 cells …. The experiment in a line: Mirrorball direct binding, dilution series on expi293 cells transiently transfected with mouse SEMA4A, anti-human Alexa Fluor 647.
On to B8, for which the binding result is “binds”.

Take B1: the binding result was “binds”.

B9: the binding result is “binds”.

Turning to B10, the binding result was “binds”.

On to B11, for which the binding result was “binds”.

On to B12, for which the binding result was “binds”.

On to B2, for which the binding result was “binds”.

Take B3: the binding result is recorded as “binds”.

B4: the binding result is on record as “binds”.

On to B5, for which the binding result was “binds”.

Regarding B6, the binding result is given as “binds”.

B13: the binding result is “binds”.

On to B7, for which the binding result is “binds”.
